# Source: article doi:10.1101/2021.08.22.457263, “Reconstitution of surface lipoprotein translocation reveals Slam as an outer membrane translocon in Gram-negative bacteria” (bioRxiv, 2021)
# T1: M. catarrhalis transferrin binding protein B with C-terminal flag-tag (Mcat TbpB-flag) (Moraxella catarrhalis, UniProt P0DTW7 21-706, lipidated)
# T1 sequence: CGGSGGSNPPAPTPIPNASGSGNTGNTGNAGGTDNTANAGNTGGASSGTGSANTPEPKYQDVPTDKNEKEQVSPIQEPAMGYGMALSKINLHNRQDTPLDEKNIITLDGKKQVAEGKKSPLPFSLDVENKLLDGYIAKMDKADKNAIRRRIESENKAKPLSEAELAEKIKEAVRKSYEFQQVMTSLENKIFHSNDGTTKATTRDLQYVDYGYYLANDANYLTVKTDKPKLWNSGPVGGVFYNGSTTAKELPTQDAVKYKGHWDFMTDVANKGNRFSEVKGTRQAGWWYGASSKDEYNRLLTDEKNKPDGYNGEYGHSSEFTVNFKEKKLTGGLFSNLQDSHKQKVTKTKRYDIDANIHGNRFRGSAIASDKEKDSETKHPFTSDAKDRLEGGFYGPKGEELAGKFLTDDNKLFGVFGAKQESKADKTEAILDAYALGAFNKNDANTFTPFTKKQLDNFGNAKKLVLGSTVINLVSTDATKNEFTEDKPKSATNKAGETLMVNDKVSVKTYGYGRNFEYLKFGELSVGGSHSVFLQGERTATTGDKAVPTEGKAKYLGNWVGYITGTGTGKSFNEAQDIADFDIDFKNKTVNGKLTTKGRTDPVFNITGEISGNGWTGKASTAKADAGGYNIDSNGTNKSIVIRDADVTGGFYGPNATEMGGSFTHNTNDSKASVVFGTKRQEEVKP
# B1: His-tagged E. coli Skp, purified (natural protein, UniProt P0AEU7 21-161, looked up)
# chain: ADKIAIVNMGSLFQQVAQKTGVSNTLENEFKGRASELQRMETDLQAKMKKLQSMKAGSDRTKLEKDVMAQRQTFAQKAQAFEQDRARRSNEERGKLVTRIQTAVKSVANSQDIDLVVDANAVAYNSSDVKDITADVLKQVK
# Biological target: T1, M. catarrhalis transferrin binding …
# Experiment: cell-based or functional assay
binder,measurement,value
B1,"protection of urea-unfolded purified TbpB from proteinase K with empty liposomes, Skp added against SurA added",2 fold
